B1: LINE1-mini (parent)
chain: GGCAGAGCUCAACACAGCGUGGCAAAGUGGCUGUGGCUAGACUGCC

Variants of: B1
Assay: self-cleavage, relative activity (ratio to wild type); higher = more cleavage; in vitro, sequencing; the parent is a self-cleaving ribozyme
A6G A12G showed a self-cleavage of 0.03.
With A6G A12U the self-cleavage was 0.09.
A6G A12C showed a self-cleavage of 0.05.
For A6G G22U, the self-cleavage was 0.12.
For A6G G22A, the self-cleavage was 0.11.
With A6G G22C the self-cleavage was 0.07.
In the case of A6G U34A, the self-cleavage is reported as 0.04.
Variant A6G U34C has a self-cleavage of 0.09.
Variant A6G U34G has a self-cleavage of 0.04.
For A6U, the self-cleavage was 0.7.
With A6G the self-cleavage was 0.12.
Work on A6G U28A yielded a self-cleavage of 0.05.
Variant A6G U28C has a self-cleavage of 0.05.
In the case of A6G U28G, the self-cleavage is reported as 0.09.
Variant A6U A11G has a self-cleavage of 0.04.
In the case of A6U A11C, the self-cleavage is reported as 0.06.
Work on A6U A11U yielded a self-cleavage of 0.09.
Variant A6G C45G has a self-cleavage of 0.18.
In the case of A6G C45U, the self-cleavage is reported as 0.11.
For A6G C45A, the self-cleavage was 0.15.
Work on A6G C13U yielded a self-cleavage of 0.15.
With A6G C13G the self-cleavage was 0.13.
Work on A6G C13A yielded a self-cleavage of 0.19.
Variant A6U C18A has a self-cleavage of 0.52.
Variant A6G A11C has a self-cleavage of 0.02.
Work on A6G A11U yielded a self-cleavage of 0.02.
A6G A11G showed a self-cleavage of 0.02.
With A6G G27U the self-cleavage was 0.08.
Work on A6G G27A yielded a self-cleavage of 0.14.
Work on A6G G27C yielded a self-cleavage of 0.07.
A6G A14U gave a self-cleavage of 0.05.
A6G A14G gave a self-cleavage of 0.07.
A6G A14C showed a self-cleavage of 0.14.
Variant A6U A24C has a self-cleavage of 1.21.
For A6U A24G, the self-cleavage was 0.94.
Variant A6U A24U has a self-cleavage of 1.6.
For A6G U43C, the self-cleavage was 0.09.
A6G U43A showed a self-cleavage of 0.15.
A6G U43G showed a self-cleavage of 0.
With A6G G33A the self-cleavage was 0.06.
In the case of A6G G33C, the self-cleavage is reported as 0.03.
With A6G G33U the self-cleavage was 0.07.
Work on A6G C23A yielded a self-cleavage of 0.11.
For A6G C23U, the self-cleavage was 0.1.
For A6G C23G, the self-cleavage was 0.1.
For A6G A26C, the self-cleavage was 0.14.
In the case of A6G A26G, the self-cleavage is reported as 0.1.
Work on A6G A26U yielded a self-cleavage of 0.1.
With A6G G7A the self-cleavage was 0.11.
A6G G7U gave a self-cleavage of 0.05.
With A6G G7C the self-cleavage was 0.14.
Work on A6U A26G yielded a self-cleavage of 0.31.
Work on A6U A26C yielded a self-cleavage of 0.56.
With A6U A26U the self-cleavage was 0.85.
Work on A6U A39C yielded a self-cleavage of 0.51.
A6U A39U showed a self-cleavage of 0.35.
A6U A39G showed a self-cleavage of 0.04.
Variant A6G U9C has a self-cleavage of 0.02.
In the case of A6G U9G, the self-cleavage is reported as 0.17.
With A6G U9A the self-cleavage was 0.12.
A6G C15A gave a self-cleavage of 0.05.
With A6G C15G the self-cleavage was 0.02.
For A6G C15U, the self-cleavage was 0.17.
A6C U43A gave a self-cleavage of 0.13.
A6C U43C gave a self-cleavage of 0.08.
A6C U43G showed a self-cleavage of 0.03.
With A6G C37U the self-cleavage was 0.03.
For A6G C37G, the self-cleavage was 0.07.
For A6G C37A, the self-cleavage was 0.05.
A6G A41U showed a self-cleavage of 0.1.
For A6G A41C, the self-cleavage was 0.15.
A6G A41G gave a self-cleavage of 0.39.
For A6U C15G, the self-cleavage was 0.07.
Work on A6U C15U yielded a self-cleavage of 0.92.
A6U C15A showed a self-cleavage of 0.16.
Work on A6G U38A yielded a self-cleavage of 0.06.
A6G U38C showed a self-cleavage of 0.07.
In the case of A6G U38G, the self-cleavage is reported as 0.01.
A6G C10U gave a self-cleavage of 0.04.
A6G C10G gave a self-cleavage of 0.02.
In the case of A6G C10A, the self-cleavage is reported as 0.03.
In the case of A6G G29A, the self-cleavage is reported as 0.08.
In the case of A6G G29C, the self-cleavage is reported as 0.07.
Work on A6G G29U yielded a self-cleavage of 0.09.
For A6G A25G, the self-cleavage was 0.07.
Work on A6G A25C yielded a self-cleavage of 0.1.
Variant A6G A25U has a self-cleavage of 0.1.
A6G A24G showed a self-cleavage of 0.12.
A6G A24C showed a self-cleavage of 0.13.
A6G A24U showed a self-cleavage of 0.19.
In the case of A6U A14U, the self-cleavage is reported as 0.27.
A6U A14G gave a self-cleavage of 0.1.
A6U A14C gave a self-cleavage of 0.11.
With A6G G30U the self-cleavage was 0.13.
With A6G G30C the self-cleavage was 0.13.
Variant A6G G30A has a self-cleavage of 0.19.
A6G C31U gave a self-cleavage of 0.03.
A6G C31A showed a self-cleavage of 0.07.
For A6G C31G, the self-cleavage was 0.05.
In the case of A6G G36C, the self-cleavage is reported as 0.09.
A6G G36A showed a self-cleavage of 0.13.
With A6G G36U the self-cleavage was 0.04.
In the case of A6U A25G, the self-cleavage is reported as 0.47.
Work on A6U A25C yielded a self-cleavage of 0.65.
Variant A6U A25U has a self-cleavage of 0.72.
Variant A6U C13A has a self-cleavage of 0.2.
Work on A6U C13G yielded a self-cleavage of 0.28.
Variant A6U C13U has a self-cleavage of 0.11.
A6U A12G showed a self-cleavage of 0.04.
With A6U A12C the self-cleavage was 0.04.
A6U A12U gave a self-cleavage of 0.17.
In the case of A6G G40U, the self-cleavage is reported as 0.1.
With A6G G40C the self-cleavage was 0.05.
With A6G G40A the self-cleavage was 0.1.
A6U A16C showed a self-cleavage of 0.09.
With A6U A16U the self-cleavage was 0.11.
For A6U A16G, the self-cleavage was 0.14.
A6G C46U gave a self-cleavage of 0.09.
With A6G C46G the self-cleavage was 0.08.
Work on A6G C46A yielded a self-cleavage of 0.13.
A6G C18A gave a self-cleavage of 0.11.
For A6G C18G, the self-cleavage was 0.11.
With A6G C18U the self-cleavage was 0.08.
Work on A6U C8G yielded a self-cleavage of 0.15.
Variant A6U C8A has a self-cleavage of 0.27.
A6U C8U showed a self-cleavage of 0.29.
A6G G35A showed a self-cleavage of 0.05.
A6G G35C gave a self-cleavage of 0.12.
Work on A6G G35U yielded a self-cleavage of 0.08.
For A6G C42G, the self-cleavage was 0.04.
A6G C42A gave a self-cleavage of 0.12.
For A6G C42U, the self-cleavage was 0.07.
A6G U32C gave a self-cleavage of 0.07.
In the case of A6G U32A, the self-cleavage is reported as 0.07.
A6G U32G showed a self-cleavage of 0.07.
Work on A6G A16C yielded a self-cleavage of 0.04.
A6G A16G gave a self-cleavage of 0.12.
In the case of A6G A16U, the self-cleavage is reported as 0.06.
A6G G19A gave a self-cleavage of 0.09.
Work on A6G G19C yielded a self-cleavage of 0.05.
For A6G G19U, the self-cleavage was 0.15.
A6U C10G showed a self-cleavage of 0.06.
Variant A6U C10U has a self-cleavage of 0.12.
In the case of A6U C10A, the self-cleavage is reported as 0.07.
For A6G G17A, the self-cleavage was 0.09.
A6G G17C showed a self-cleavage of 0.09.
Variant A6G G17U has a self-cleavage of 0.04.
For A6G G21C, the self-cleavage was 0.13.
Work on A6G G21U yielded a self-cleavage of 0.13.
A6G G21A showed a self-cleavage of 0.23.
For A6G A39C, the self-cleavage was 0.15.
Variant A6G A39G has a self-cleavage of 0.03.
For A6G A39U, the self-cleavage was 0.08.
Variant A6G G44A has a self-cleavage of 0.46.
With A6G G44C the self-cleavage was 0.14.
With A6G G44U the self-cleavage was 0.13.
Variant A6C U38C has a self-cleavage of 0.21.
In the case of A6C U38G, the self-cleavage is reported as 0.02.
In the case of A6G U20C, the self-cleavage is reported as 0.1.
A6G U20A showed a self-cleavage of 0.04.
In the case of A6G U20G, the self-cleavage is reported as 0.13.
Variant A6U A41G has a self-cleavage of 2.27.
Variant A6U A41C has a self-cleavage of 0.07.
For A6U A41U, the self-cleavage was 0.09.
For A6G C8G, the self-cleavage was 0.08.
In the case of A6G C8U, the self-cleavage is reported as 0.22.
A6G C8A showed a self-cleavage of 0.15.

Reference: the RNAGym collection of RNA variant scans (doi:10.7554/elife.90254)
